Test results taken from PMC7242902.
Values belong to the molecule of their own block, whether it stands above or below them.

Experiments:
[1] = target: NLuc/CXCR4, exogenously (stably) expressed in HEK293 cells (UniProt P61073); assay: FRET or BRET; NanoBRET saturation binding on membrane preparations (10 μg membrane protein per well) with NLuc-tagged receptor; increasing CXCL12-AF647 for 60 min at 37°C in HBSS with 0.1% BSA; non-specific binding with AMD3100 (10 μM) for CXCR4 or CXCL11 (10 μM) for ACKR3
[2] = target: NLuc/ACKR3, exogenously (stably) expressed in HEK293 cells (UniProt P25106); assay: as above
[3] = target: NLuc/CXCR4, genome-edited, in HeLa cells (human (endogenous in HeLa)) (UniProt P61073); assay: FRET or BRET; NanoBRET saturation binding on live cells (30,000 cells/well) with NLuc-tagged receptor; increasing CXCL12-AF647 for 60 min at 37°C in HBSS with 0.1% BSA; non-specific binding with AMD3100 (10 μM) for CXCR4 or CXCL11 (10 μM) for ACKR3; furimazine 10 μM
[4] = target: NLuc/CXCR4, genome-edited, in HEK293 cells (human (endogenous in HEK293)) (UniProt P61073); assay: as above
[5] = target: NLuc/ACKR3, exogenously (stably) expressed in HEK293 cells (UniProt P25106); assay: as above
[6] = target: NLuc/ACKR3, genome-edited, in HeLa cells (human (endogenous in HeLa)) (UniProt P25106); assay: as above
[7] = target: HiBiT/CXCR4, genome-edited, in HEK293 cells (human (endogenous in HEK293)) (UniProt P61073); assay: FRET or BRET; NanoBRET saturation binding on live HEK293 cells with genome-edited HiBiT/CXCR4; CXCL12-AF647 for 60 min at 37°C, then furimazine (10 μM) and purified cell-impermeant LgBiT (10 nM) added, so that only receptors at the plasma membrane are seen; non-specific binding with AMD3100 (10 μM)
[8] = target: HiBiT/β2-adrenoceptor, genome-edited, in HEK293 cells (human (endogenous in HEK293)) (UniProt P07550); assay: split reporter (BiFC, NanoBiT); HiBiT-LgBiT complementation, saturation on live HEK293 cells with genome-edited HiBiT-tagged receptor; increasing purified LgBiT for 30 min at 37°C in HBSS with 0.1% BSA; without AMD3100; non-specific luminescence on wild-type cells
[9] = target: HiBiT/CXCR4, genome-edited, in HEK293 cells (human (endogenous in HEK293)) (UniProt P61073); assay: as above
[10] = target: HiBiT/CXCR4, genome-edited, in HEK293 cells (human (endogenous in HEK293)) (UniProt P61073); assay: split reporter (BiFC, NanoBiT); HiBiT-LgBiT complementation, saturation on live HEK293 cells with genome-edited HiBiT/CXCR4; increasing purified LgBiT; in the presence of AMD3100 (10 μM)
[11] = target: HiBiT/CXCR4, genome-edited, in HEK293 cells (human (endogenous in HEK293)) (UniProt P61073); assay: split reporter (BiFC, NanoBiT); HiBiT-LgBiT complementation, saturation on membrane preparations (10 μg, 0.25 mg/ml saponin) from genome-edited HiBiT/CXCR4 HEK293 cells; increasing purified LgBiT; without AMD3100
[12] = target: HiBiT-Halotag, control peptide; assay: split reporter (BiFC, NanoBiT); HiBiT-LgBiT complementation of purified proteins: 1 nM HiBiT-Halotag in HBSS with 0.1% BSA, increasing purified LgBiT; without AMD3100
[13] = target: HiBiT-Halotag, control peptide; assay: split reporter (BiFC, NanoBiT); HiBiT-LgBiT complementation of purified proteins: 1 nM HiBiT-Halotag in HBSS with 0.1% BSA, increasing purified LgBiT; in the presence of AMD3100 (10 μM)
[14] = target: HiBiT/CXCR4, genome-edited, in HEK293 cells (human (endogenous in HEK293)) (UniProt P61073); assay: split reporter (BiFC, NanoBiT); HiBiT-LgBiT complementation, saturation on membrane preparations (10 μg, 0.25 mg/ml saponin) from genome-edited HiBiT/CXCR4 HEK293 cells; increasing purified LgBiT; in the presence of AMD3100 (10 μM)
[15] = target: HiBiT/ACKR3, exogenously expressed in HEK293 cells (UniProt P25106)
[16] = target: CXCR4/LgBiT, transiently transfected in HEK293 cells (UniProt P61073)
[17] = target: CXCR4/LgBiT, genome-edited, in HEK293 cells (human (endogenous in HEK293)) (UniProt P61073)
[18] = target: HiBiT/CXCR4, exogenously (stably) expressed in HEK293 cells (UniProt P61073)
[19] = target: HiBiT/CXCR4, genome-edited, in HEK293 cells (human (endogenous in HEK293)) (UniProt P61073)

Molecule: CXCL12-AF647 (from UniProt P48061 22-93) (ligand)
- pKd [1]: 7.55 -log M
- pKd [2]: 8.83 -log M
- pKd [3]: 7.58 -log M
- pKd [4]: 7.5 -log M
- pKd [5]: 8.12 -log M
- pKd [6]: 8.77 -log M
- pKd [7]: 7.49 -log M

Molecule: CXCL12 (from UniProt P48061 22-93) (ligand)
- pEC50 of CXCL12 for the increase in luminescence of live HEK293 cells with exogenous HiBiT/ACKR3 complemented with purified LgBiT [15]: 8.23 -log M
- pEC50 of CXCL12 (0.3-300 nM) for the increase in NanoBiT luminescence (recruitment of genome-edited β-arrestin2/SmBiT, m14, to transiently transfected CXCR4/LgBiT), about 5 min after ligand addition [16]: 7.48 -log M
- pEC50 of CXCL12 (0.3-300 nM) for the increase in NanoBiT luminescence (recruitment of genome-edited β-arrestin2/SmBiT, m14, to genome-edited CXCR4/LgBiT), about 5 min after ligand addition [17]: 7.16 -log M
- pEC50 of CXCL12 (0.3-300 nM) for the increase in NanoBiT luminescence (recruitment of transiently transfected β-arrestin2/SmBiT, m13, to genome-edited CXCR4/LgBiT), about 5 min after ligand addition [17]: 7.69 -log M
- pEC50 of CXCL12 for the decrease in luminescence (cell surface HiBiT/CXCR4 complemented with purified LgBiT, 10 nM) after 1 h at 37°C, live HEK293 cells stably overexpressing HiBiT/CXCR4 [18]: 8.69 -log M
- pEC50 of CXCL12 for the decrease in luminescence (cell surface HiBiT/CXCR4 complemented with purified LgBiT, 10 nM) after 1 h at 37°C, live genome-edited HEK293 cells [19]: 8.46 -log M

Next, values leading:

- Kd [8]: 54.5 nM
- Kd [9]: 230 nM
- Kd [10]: 58.5 nM
- Kd [11]: 180 nM
- Kd [12]: 6.99 nM
- Kd [13]: 7.73 nM
- Kd [14]: 115 nM
Molecule: Purified LgBiT (domain or fragment)

- pEC50 of CXCL11 for the increase in luminescence of live HEK293 cells with exogenous HiBiT/ACKR3 complemented with purified LgBiT [15]: 7.48 -log M
B1: CXCL11 (ligand)
chain: FPMFKRGRCLCIGPGVKAVKVADIEKASIMYPSNNCDKIEVIITLKENKGQRCLNPKSKQARLIIKKVERKNF
